{"source": "paper PMC4823331", "target": "pneumolysin (Streptococcus pneumoniae) (UniProt P0C2J9)"}
{"substance": "pneumolysin (from UniProt P0C2J9 1-471) (natural protein)", "values": [{"measurement": "k0.5 of the reciprocal lag length before lysis of sheep erythrocytes against pneumolysin concentration (fit with Eq. 3), 30.0 °C", "value": 143, "unit": "nM"}, {"measurement": "k0.5 of the reciprocal lag length before lysis of sheep erythrocytes against pneumolysin concentration (fit with Eq. 3), 33.0 °C", "value": 176, "unit": "nM"}, {"measurement": "k0.5 of the reciprocal lag length before lysis of sheep erythrocytes against pneumolysin concentration (fit with Eq. 3), 35.0 °C", "value": 243, "unit": "nM"}, {"measurement": "k0.5 of the reciprocal lag length before lysis of sheep erythrocytes against pneumolysin concentration (fit with Eq. 3), 37.0 °C", "value": 405, "unit": "nM"}, {"measurement": "k0.5 of the reciprocal lag length before lysis of sheep erythrocytes against pneumolysin concentration (fit with Eq. 3), 38.5 °C", "value": 266, "unit": "nM"}]}
